This is an account of results in patent US20220169722A1 (WUXI BIOLOGICS IRELAND, published 2022).

The target of assay [1] is T1, cynomolgus LAG-3 on transfected cells (cynomolgus monkey).
T1 construct: whole, on cells; 293F cells transfected with cynomolgus LAG-3; also called cell surface cynomolgus LAG-3; monkey LAG-3
Nature of the assay: FACS, serial dilutions on cynomolgus LAG-3 transfected cells, PE-labeled secondary antibody. How it is done:
(§1) Similarly, cross-reactivity to cynomolgus or murine LAG-3 was tested by FACS with cyno or murine LAG-3 transfected cell lines.

For assay [2], the target named is T2, human LAG-3 protein (SPR analyte) (human, UniProt P18627 23-450).
T2 construct: extracellular domain
T2 sequence (looked up): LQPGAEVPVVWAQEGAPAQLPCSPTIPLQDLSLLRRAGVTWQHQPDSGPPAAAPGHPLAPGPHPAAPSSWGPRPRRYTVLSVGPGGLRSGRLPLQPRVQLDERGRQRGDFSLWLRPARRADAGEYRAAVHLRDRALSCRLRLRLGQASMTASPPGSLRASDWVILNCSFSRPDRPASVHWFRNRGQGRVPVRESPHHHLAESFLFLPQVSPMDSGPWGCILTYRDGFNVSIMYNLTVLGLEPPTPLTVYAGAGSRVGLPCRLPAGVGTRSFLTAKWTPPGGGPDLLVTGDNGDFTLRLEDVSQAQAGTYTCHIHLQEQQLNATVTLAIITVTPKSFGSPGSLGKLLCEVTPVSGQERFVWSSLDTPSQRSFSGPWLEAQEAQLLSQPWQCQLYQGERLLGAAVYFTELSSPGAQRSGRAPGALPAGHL
Nature of the assay: SPR Biacore 8K, Ab as ligand, LAG-3 as analyte.

Assay [3] deals with T3, mouse LAG-3 protein (SPR analyte) (mouse, UniProt Q61790 24-442).
T3 construct: extracellular domain
T3 sequence (looked up): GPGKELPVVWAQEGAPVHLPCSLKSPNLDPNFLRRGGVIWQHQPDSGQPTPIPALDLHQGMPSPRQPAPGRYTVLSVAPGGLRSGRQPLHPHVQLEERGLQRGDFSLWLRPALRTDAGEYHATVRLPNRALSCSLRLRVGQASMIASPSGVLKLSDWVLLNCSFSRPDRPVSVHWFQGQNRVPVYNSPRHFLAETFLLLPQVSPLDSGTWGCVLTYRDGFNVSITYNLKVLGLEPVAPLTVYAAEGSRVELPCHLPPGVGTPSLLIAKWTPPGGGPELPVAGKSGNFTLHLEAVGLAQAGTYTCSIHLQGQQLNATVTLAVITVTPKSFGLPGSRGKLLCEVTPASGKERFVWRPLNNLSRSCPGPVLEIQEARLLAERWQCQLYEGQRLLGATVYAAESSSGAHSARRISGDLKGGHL
Nature of the assay: SPR Biacore 8K, Ab as ligand, LAG-3 as analyte.

Assay [4] concerns the target T4, human LAG-3 on transfected cells (human, UniProt P18627 23-525).
T4 construct: whole, on cells; Flp-In-293 or CHO-K1 cells transfected with full length human LAG-3; also called cell surface human LAG-3
T4 sequence (looked up): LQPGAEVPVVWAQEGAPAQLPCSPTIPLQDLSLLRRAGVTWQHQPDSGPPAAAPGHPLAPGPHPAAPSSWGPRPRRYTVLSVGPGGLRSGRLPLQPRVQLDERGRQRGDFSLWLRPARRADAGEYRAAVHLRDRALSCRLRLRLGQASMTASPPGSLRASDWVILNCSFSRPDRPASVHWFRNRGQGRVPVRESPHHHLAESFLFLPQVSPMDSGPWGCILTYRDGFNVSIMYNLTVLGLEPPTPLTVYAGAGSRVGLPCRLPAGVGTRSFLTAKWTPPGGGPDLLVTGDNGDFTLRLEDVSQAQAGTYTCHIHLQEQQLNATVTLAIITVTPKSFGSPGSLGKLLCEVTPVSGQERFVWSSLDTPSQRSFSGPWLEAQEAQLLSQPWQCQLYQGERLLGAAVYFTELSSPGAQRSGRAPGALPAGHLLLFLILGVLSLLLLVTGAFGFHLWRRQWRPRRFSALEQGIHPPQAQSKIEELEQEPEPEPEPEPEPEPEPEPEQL
The assay can be described thus: FACS affinity on transfected cells.

For assay [5], the target named is T5, mouse LAG-3 on transfected cells (mouse, UniProt Q61790 24-521).
T5 construct: whole, on cells; Flp-In-CHO cells transfected with mouse LAG-3; also called cell surface mouse LAG-3; murine LAG-3
T5 sequence (looked up): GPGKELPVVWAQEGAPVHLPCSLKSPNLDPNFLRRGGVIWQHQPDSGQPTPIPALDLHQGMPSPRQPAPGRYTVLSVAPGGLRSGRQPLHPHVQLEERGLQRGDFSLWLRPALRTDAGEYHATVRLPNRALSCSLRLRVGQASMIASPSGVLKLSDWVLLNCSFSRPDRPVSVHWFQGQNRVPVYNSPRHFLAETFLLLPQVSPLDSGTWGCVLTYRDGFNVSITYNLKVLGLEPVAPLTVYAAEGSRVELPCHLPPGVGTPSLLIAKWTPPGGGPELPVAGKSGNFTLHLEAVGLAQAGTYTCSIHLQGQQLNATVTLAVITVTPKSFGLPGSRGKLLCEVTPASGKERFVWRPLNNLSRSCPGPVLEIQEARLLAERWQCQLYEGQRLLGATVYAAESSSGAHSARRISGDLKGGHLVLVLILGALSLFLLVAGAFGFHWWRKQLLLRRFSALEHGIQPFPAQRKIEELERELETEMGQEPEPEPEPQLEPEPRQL
Nature of the assay: FACS affinity on transfected cells.

Assay [6] deals with T1, cynomolgus LAG-3 on transfected cells. The assay can be described thus: FACS affinity on transfected cells.
The target in assay [7] is human CD4 (human, UniProt P01730 26-390, limits assumed). Nature of the assay: ELISA, plates coated with human CD4, goat anti-human IgG Fc-HRP. How it is done: Cross-reactivity to human CD4 was measured by ELISA. Plates were coated with human CD4 at 1 μg/ml overnight at 4° C. After blocking and washing, 1 μg/ml of LAG-3 antibodies were added to the plates and incubated at room temperature for 1 h. The plates were then washed and subsequently incubated with goat-anti human IgG Fc-HRP for 45 min. After washing, TMB substrate was added and the color reaction was stopped by 2M HCl. The absorbance at 450 nm was read using a microplate reader.

The target of assay [8] is T4, human LAG-3 on transfected cells. The assay can be described thus: FACS, serial dilutions on human LAG-3 transfected cells, PE-labeled secondary antibody.
Assay [9] deals with T5, mouse LAG-3 on transfected cells. The assay can be described thus: FACS on mouse LAG-3 transfected cells. How it is done:
as §1

Numbering of substitutions follows the chain as printed.

B1: W3396-R2-1 (Fc fusion)
VHH: QVQLVESGGGVVQPGGSLRLSCAASGLTLSQYTMGWFRQAPGKERELVAAIHWTSSVTDYADSVYGRFTISRDDSKNTGYLQMNSLRAEDTAVYYCAATWYYTHRGSFDYWGQGTLVTVSS
Take B1: the EC50 in assay [1] was 2.34 nM; in assay [8], 0.364 nM; in [9], 0.1 nM. The Kd in assay [2] was 0.183 nM; in [3], 0.00227 nM; in assay [4], 0.81 nM; in [5], 0.057 nM; in assay [6], 3.3 nM. For the same molecule, the results for the koff in assay [2] and in assay [3] were 2.73e-05 s⁻¹ and 2.31e-06 s⁻¹, respectively. The results for the kon in [2] and in [3] were 149000 M⁻¹ s⁻¹ and 1.02e+06 M⁻¹ s⁻¹, respectively. The values for the Bmax in assay [4], in [5] and in assay [6] were 250 pM, 57 pM and 280 pM, respectively. Moreover, in assay [7], the binding result is listed as “no binding (tested: 66.7 nM)”.

B2: W3396-R2-13 (Fc fusion)
VHH: B1 VHH with Y65R
In assay [1], B2 registered an EC50 of 2.16 nM. Further, the Bmax in [4] is 200 pM; in assay [5], 53 pM; in assay [6] it was 310 pM. The figures for the dissociation constant Kd in assay [4], in assay [5] and in [6] were 0.92 nM, 0.054 nM and 5 nM, respectively. Moreover, the binding result in assay [7] is listed as “no binding (tested: 66.7 nM)”.
